Tests used:
[1] = target: the molecule itself; assay: AUC
[2] = target: the molecule itself; assay: AUC; remark: listed apart in the source

B1: poly-epitope P181 (P90-DEG-P77-DEG-P27) (peptide)
chain: TKKLNKELSEGNKELEKLEKNIKELEETNNTLENDIKVEKLKKYNNEISSLKKELDILNEKMGKCTKKRNVEEELHSLRKNYNIINEEIEEIT
modifications: derivatized diethylene glycol (DEG) linker inserted between P90 and P77 and between P77 and P27
With B1 the Kd [1] was 115 µM and the “stoichiometry N” value [2] was 2.
